The values below come from patent US20230322880A1 (MEDIKINE, published 2023).

The test deals with T1, IL-7Rα-Fc (CD127 protein, Fc tag; ECD 21-236; ACRObiosystems, Inc, Cat. #ILA-H5258) (human, UniProt P16871 21-236).
T1 construct: range 21-236; also called hu-IL-7Rα subunit; not shown: Fc tag of the purchased protein
T1 sequence (looked up): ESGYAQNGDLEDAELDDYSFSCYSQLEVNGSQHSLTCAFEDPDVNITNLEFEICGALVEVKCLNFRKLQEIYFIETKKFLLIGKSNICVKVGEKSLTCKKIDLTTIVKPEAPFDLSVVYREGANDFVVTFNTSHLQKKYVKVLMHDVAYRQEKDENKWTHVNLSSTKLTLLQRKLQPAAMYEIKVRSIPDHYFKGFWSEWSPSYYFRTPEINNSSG
In words: competition binding ELISA, plate-coated receptor, biotinylated reference peptide::NA-HRP tracer. On the procedure:
Binding of the synthetic IL-7Rα ligands to IL-7Rα was evaluated using a competition binding ELISA. Microtiter plate wells were coated with IL-7Rα-Fc (CD127 protein, Fc tag; ECD 21-236; ACRObiosystems, Inc, Cat. #ILA-H5258) at 1 μg/mL; 50 μL per well in PBS for at least 1 h. The plate was washed once with wash buffer (200 μL, PBS containing 0.05% Tween®-20 (Sigma). Wells were blocked with blocking buffer (PBS containing 1% BSA (BSA Fraction V; VWR Cat. No. 97061-416) for 1 h. A serial dilution of the peptides was prepared, at twice the final concentration, in assay buffer (PBS containing 0.5% BSA and 0.05% Tween®-20) in a 96-well polypropylene plate. A terminal biotinylated form of the reference IL-7Rα peptide ligand having SEQ ID NO: 300 ([…]) was used to make a precomplex with NeutrAvidin-HRP (NA-HRP; ThermoFisher Cat. No. 31030) (Precomplex referred to as bnPeptide::NA-HRP). The bnPeptide::NA-HRP precomplex was prepared by mixing 1.5 μL 100 μM biotinylated peptide, 2 μL NA-HRP and 11.5 PBS and incubated at 4° C. for at least 45 min. After blocking the wells, the plate was washed with a plate washer and serial dilutions of the peptides were added (50 μL/well) and the plate was incubated at 4° C. for 1 h on a plate shaker. […] Fifty (50) μL of a solution (Surmodics Cat. #LSTP-0100-0) was then added and the plate read at 450 nm. […]
A general note: An ELISA detects its analyte on a solid surface through an enzyme-linked reagent.

Where no end group is shown, it is not given here.

B1: IL-7Rαγc ligand having SEQ ID NO: 30 (peptide)
peptide: GWGIPWCTLDPGSLQCAWLGKHGGGGSGGVVCQDWEGVELCWQGG
modifications: disulfide (positions not given here); also: two disulfide bridges, pairing not given here
With B1, the binding result is recorded as “binds”.
